Source: FireProtDB (doi:10.1021/bi982078m)
Several values for one entry are separate records, joined by “and”; a condition that tells them apart may be missing. Equal entries are not always repeated.

Conditions: Equus caballus, pH 6, 25 °C, Absorbance, cacodylate 0.03 M, reversible: yes

Cytochrome c wild type, P00004, sequence (P00004 whole entry): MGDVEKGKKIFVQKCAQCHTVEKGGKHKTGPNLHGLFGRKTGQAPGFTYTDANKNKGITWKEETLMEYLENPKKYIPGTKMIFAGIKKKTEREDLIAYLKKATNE

Cytochrome c wild type, P00004
denaturant m value (GdnHCl, KCl 0.1-1.0 M): 3.31 kcal/mol/M
denaturant midpoint (higher = more stable) (GdnHCl, KCl 0.1-1.0 M): 2.47 M
unfolding free energy (GdnHCl, KCl 0.1-1.0 M): 8.18 kcal/mol
denaturant m value (Urea, KCl 0.1-1.0 M): 1.28 kcal/mol/M
denaturant midpoint (higher = more stable) (Urea, KCl 0.1-1.0 M): 6.26 M
unfolding free energy (Urea, KCl 0.1-1.0 M): 8.02 kcal/mol
denaturant m value (Urea, KCl 0.1 M): 1.25 kcal/mol/M and 1.37 kcal/mol/M
